{"source": "patent US10487307B2", "about": "“Culture method for pluripotent stem cells” (FUJIFILM CORPORATION, priority 2013, dated 2019)", "molecules": {"B1": {"name": "RCP-11: recombinant polypeptide for culture, SEQ ID NO: 25; vitronectin positions 1-55, 269-277, 295-341, 342-373, C274S (protein)", "chain": "MDQESCKGRCTEGFNVDKKCQCDELCSYYQSCCTDYTAECKPQVTRGDVFTMPEDESQEESEGSEDIFELLFWGRTSAGTRQPQFISRDWHGVPGQVDAAMAGRIYISGMAPRPSLAKKQRFRHRNRKGYRSQRGHSRGRNQN", "modifications": "Vitronectin-derived Recombinant Protein (RCP-11)", "notes": "vitronectin positions 1-55, 269-277, 295-341, 342-373, C274S"}, "B2": {"name": "RCP-5: recombinant polypeptide for culture, SEQ ID NO: 19; vitronectin positions 1-55, 302-341, 342-373 (protein)", "chain": "MDQESCKGRCTEGFNVDKKCQCDELCSYYQSCCTDYTAECKPQVTRGDVFTMPEDEFWGRTSAGTRQPQFISRDWHGVPGQVDAAMAGRIYISGMAPRPSLAKKQRFRHRNRKGYRSQRGHSRGRNQN", "modifications": "Vitronectin-derived Recombinant Protein (RCP-5)"}}, "key": {"human iPS cells (\"Tic\")": {"system": "human iPS cells (\"Tic\")", "assay": "Cell growth property evaluation 1 (different media)", "format": "cell-based", "settings": "for cell growth properties with Essential 8 or NutriStem not containing 2-mercaptoethanol versus media containing it: Table 11; for Cell growth rate: polypeptide 100 μg/ml, 72 hours, RCP-11 with Essential 8 = 100%, n=3", "experimental": "Furthermore, for evaluation, human iPS cells (“Tic”) that were retention-cultured as described in <Cell adhesiveness evaluation 1> of reference example were treated with TrypLE Select (Invitrogen) for 5 minutes at 37° C. and separated into a single cell. After being subjected to centrifugation for 2 minutes at 300 rpm, the cells were collected, suspended in each medium, and used for the evaluation in each example. Herein, Y-27362 ((R)-(+)-trans-N-(4-pyridyl)-4-(1-aminoethyl)-cyclohexane carboxamide.2HCl.H2O, an Rho binding kinase inhibitor, Wako Pure Chemical Industries, Ltd.) was added to all of the media at a final concentration of 10 μM.\nEach of RCP-11, RCP-5, and recombinant laminin (Human Recombinant Laminin-511: BIOLAMINA AB) as control was added to and suspended in a predetermined buffer (a dialysis buffer used in <GRAVY value and aggregation characteristics> of reference examples for RCP-11 and RCP-5, and PBS for the recombinant laminin) at the final concentration shown in Table 11, thereby preparing polypeptide solutions. The polypeptide solutions were added to the respective wells of a plasma-treated 96-well plate made of polystyrene (BD Falcon) having a plasma-treated cell culture surface and held as they were so as to be adsorbed onto the plate for 2 hours at 37° C. In this way, a peptide-treated 96-well plate having a polypeptide-coated surface was obtained. The iPS cells suspended in the respective media shown in Table 11 were seeded into the respective wells of the obtained peptide-treated 96-well plate at a cell density of 10,000 cells/well. After the cells were cultured for 72 hours, nonadhesive cells were washed off with PBS, and only adhesive cells were immobilized using 4% by mass of paraformaldehyde (Wako Pure Chemical Industries, Ltd.). By using an Attophos (registered trademark) AP Fluorescent Substrate System (Promega Corporation), the ALP activity was calculated, and from the calibration curve, the number of undifferentiated iPS cells having the ALP activity was calculated. In Table 11, the cell adhesion rate is expressed as a ratio calculated by regarding the number of pluripotent stem cells after the culture for 72 hours in a combination of RCP-11 and Essential 8 as being 100%. n=3.\nIn Table 11, “% by mass” in the concentration of 2-meracptoethanol is a proportion (w/v %) of mass (g) of 2-meracptoethanol per 100 mL of the total volume of the medium at the time of culture."}, "[1]": {"assay": "Evaluation 1 about amount of residual polypeptide adsorbed (ELISA, media)", "format": "physicochemical", "settings": "for Residual rate of polypeptide (%): four days after the starting of culture, amount adsorbed immediately after start = 100, coated at 100 μg/ml; for residual rate of adsorbed polypeptide, medium not containing versus containing 2-mercaptoethanol: FIGS. 5 and 6 and Table 13", "experimental": "RCP-11 and RCP-5 were prepared by using a predetermined buffer (the dialysis buffer used in <GRAVY value and aggregation characteristics> of reference examples) such that their concentration became 100 μg/ml. The polypeptides were added to the respective wells of a plasma-treated 96-well plate made of polystyrene having a plasma-treated cell culture surface and held as they were for 2 hours at 37° C. so as to be adsorbed onto the plate, thereby obtaining a polypeptide-coated surface. After the wells were washed with PBS, the respective media were added thereto, followed by incubation at 37° C. for a predetermined time. The wells were washed with PBS, and then 20% by mass of an immunoblocking solution (DS Pharma Biomedical Co., Ltd.) was added thereto, followed by incubation for 30 minutes at 37° C., thereby performing a blocking treatment. After the wells were washed with PBS-T (PBS containing 0.05% by mass of Tween-20), 5% by mass of an immunoblocking solution (DS Pharma Biomedical Co., Ltd.) containing an anti-human vitronectin antibody (Thermo Fisher Scientific Inc.) was added thereto, followed by incubation for 2 hours at room temperature. After the wells were washed with PBS-T, a 5% by mass of immunoblocking solution (DS Pharma Biomedical Co., Ltd.) containing an HRP-labeled anti-IgG antibody (Thermo Fisher Scientific Inc.) was added thereto, followed by incubation for 1 hour at room temperature. After the wells were washed with PBS-T, a TMB Substrate (Wako Pure Chemical Industries, Ltd.) was added thereto for developing color, and then 1 N hydrochloric acid was added thereto to stop the color reaction. By using a plate reader, the absorbance was measured, and the amount of the residual RCP-11 and RCP-5 was determined (absorption wavelength: 450 nm, control wavelength: 650 nm).\nIn Table 13, the residual rate of RCP-11 and RCP-5 is expressed as a ratio (%) calculated by regarding the amount of the polypeptides adsorbed immediately after the starting of culture as being 100."}, "iPS cells": {"system": "iPS cells", "assay": "Example 6: evaluation of undifferentiated state maintainability (10 passages)", "format": "cell-based, human", "settings": "for shape of iPS cells after 10 passages: Essential 8 and NutriStem not containing 2-mercaptoethanol, FIGS. 8A to 8D", "experimental": "iPS cells were seeded onto cell culture surfaces coated with RCP-11 and RCP-5 and cultured in Essential 8. Every five to seven days after seeding, cell culture surfaces coated with RCP-11 and RCP-5 were newly prepared. The iPS cells were treated with TryPLE Select, separated into a single cell, and then collected. Thereafter, the iPS cells were subcultured by being seeded onto the newly prepared cell culture surfaces coated with RCP-11 and RCP-5. Under the conditions described above, the cells were cultured for 10 passages.\nThe iPS cells cultured for 10 passages on the RCP-11-coated surface were immobilized using 4 v/v % paraformaldehyde, and the membrane permeability was enhanced by using 1% by mass of Triton-X/PBS. After the cells were subjected to a blocking treatment using an Image IT Signal Enhancer (Invitrogen), an anti-NANOG antibody (AF 1997, R&D Systems, Inc.), an anti-OCT 3/4 antibody, an anti-SSEA-3 antibody, an anti-S SEA-4 antibody, a anti-Tra-1-60 antibody, and an anti-Tra-1-81 antibody (Stemcell Technologies Inc), an Alexa Fluor 555 binding rabbit anti-goat IgG antibody (Invitrogen), an FITC binding goat anti-mouse IgM antibody (Stemcell Technologies Inc), and DAPI (Dojindo Molecular Technologies, Inc.) were added thereto for labeling, and the cells were imaged using a fluorescence microscope.\nIn FIGS. 8A to 8D, the images on the left side are full images of the colony, and the images on the right side are magnified images. The scale bar in FIGS. 8A to 8D indicates 500 μm.\nIn FIGS. 9A to 9F, each of the images of stained cells is an image of stained iPS cells cultured on the RCP-11-coated surface by using Essential 8. The images on the left side are images of the cells stained with DAPI, and the images on the right side are images of the cells stained with NANOG (FIG. 9A), OCT 3/4 (FIG. 9B), SSEA-3 (FIG. 9C), SSEA-4 (FIG. 9D), Tra-1-60 (FIG. 9E), and Tra-1-81 (FIG. 9F). The scale bar in FIGS. 9A to 9F indicates […]."}, "[2]": {"settings": "medium Essential8, 2-mercaptoethanol 0, 10,000 cells/well"}, "[3]": {"settings": "medium NutriStem, 2-mercaptoethanol 0"}, "[4]": {"settings": "medium ReproFF2, 2-mercaptoethanol 102.4 μM (0.0008% by mass)"}, "[5]": {"settings": "medium StemPro hESC SFM, 2-mercaptoethanol 100 μM (0.00078% by mass)"}, "[6]": {"settings": "medium TeSR2, 2-mercaptoethanol 48.6 μM (0.00038% by mass)"}}}
{"molecule": "B1", "values": [{"measurement": "cell growth properties with Essential 8 or NutriStem not containing 2-mercaptoethanol versus media containing it", "setting": "human iPS cells (\"Tic\")", "value": "better"}, {"measurement": "Cell growth rate", "setting": "human iPS cells (\"Tic\"); [2]", "value": 100, "unit": "%"}, {"measurement": "Cell growth rate", "setting": "human iPS cells (\"Tic\"); [3]", "value": 129.1, "unit": "%"}, {"measurement": "Cell growth rate", "setting": "human iPS cells (\"Tic\"); [4]", "value": 84.7, "unit": "%"}, {"measurement": "Cell growth rate", "setting": "human iPS cells (\"Tic\"); [5]", "value": 13.6, "unit": "%"}, {"measurement": "Cell growth rate", "setting": "human iPS cells (\"Tic\"); [6]", "value": 71.8, "unit": "%"}, {"measurement": "Residual rate of polypeptide (%)", "setting": "[1]; Essential8", "value": 71.8, "unit": "%"}, {"measurement": "residual rate of adsorbed polypeptide, medium not containing versus containing 2-mercaptoethanol", "setting": "[1]", "value": "decreases further with the passage of time"}, {"measurement": "Residual rate of polypeptide (%)", "setting": "[1]; NutriStem", "value": 63.5, "unit": "%"}, {"measurement": "Residual rate of polypeptide (%)", "setting": "[1]; ReproFF2", "value": 42.0, "unit": "%"}, {"measurement": "Residual rate of polypeptide (%)", "setting": "[1]; Stempro hESC SFM", "value": 29.4, "unit": "%"}, {"measurement": "Residual rate of polypeptide (%)", "setting": "[1]; TeSR2", "value": 49.9, "unit": "%"}, {"measurement": "expression of markers specific to undifferentiated cells", "setting": "iPS cells; Essential 8, 10 passages, immunostaining, FIGS. 9A to 9F", "value": "expressed NANOG, OCT 3/4, SSEA-3, SSEA-4, Tra-1-60, and Tra-1-81"}, {"measurement": "shape of iPS cells after 10 passages", "setting": "iPS cells", "value": "shape specific to undifferentiated cells"}]}
{"molecule": "B2", "values": [{"measurement": "cell growth properties with Essential 8 or NutriStem not containing 2-mercaptoethanol versus media containing it", "setting": "human iPS cells (\"Tic\")", "value": "better"}, {"measurement": "Cell growth rate", "setting": "human iPS cells (\"Tic\"); [2]", "value": 84.4, "unit": "%"}, {"measurement": "Cell growth rate", "setting": "human iPS cells (\"Tic\"); [3]", "value": 123, "unit": "%"}, {"measurement": "Cell growth rate", "setting": "human iPS cells (\"Tic\"); [4]", "value": 70.3, "unit": "%"}, {"measurement": "Cell growth rate", "setting": "human iPS cells (\"Tic\"); [5]", "value": 20.1, "unit": "%"}, {"measurement": "Cell growth rate", "setting": "human iPS cells (\"Tic\"); [6]", "value": 54.4, "unit": "%"}, {"measurement": "Residual rate of polypeptide (%)", "setting": "[1]; Essential8", "value": 65.6, "unit": "%"}, {"measurement": "residual rate of adsorbed polypeptide, medium not containing versus containing 2-mercaptoethanol", "setting": "[1]", "value": "decreases further with the passage of time"}, {"measurement": "Residual rate of polypeptide (%)", "setting": "[1]; NutriStem", "value": 62.5, "unit": "%"}, {"measurement": "Residual rate of polypeptide (%)", "setting": "[1]; ReproFF2", "value": 42.1, "unit": "%"}, {"measurement": "Residual rate of polypeptide (%)", "setting": "[1]; Stempro hESC SFM", "value": 35.3, "unit": "%"}, {"measurement": "Residual rate of polypeptide (%)", "setting": "[1]; TeSR2", "value": 44.0, "unit": "%"}, {"measurement": "shape of iPS cells after 10 passages", "setting": "iPS cells", "value": "shape specific to undifferentiated cells"}]}
